Consider 18 sequences from the DeepSol protein solubility set.

This data set in a line: soluble on expression in E. coli; label from the status in PepcDB or PDB records.
“DKIGTAVLQGVMQGRRAKDVAKEIEQITDATASRATFIARDQTSKMNAAFNEIRQVGLGIESYTWQTSGDERVREDHAAHDGTVFRWSDPPATGHPGQDYNCRCVAIPNVTLEGP”: the “soluble on expression in E. coli” value is “not soluble”. Regarding “GPGSMNPSAAAYIPQQSDAKGDPKSSSAAAVAKPPSTQPATKLSAAAEPFVPGGPKQMSATSTHVDPKATTEDEKTTAPLLMECPASSLPDSAAAAGAAKKEADENDDSQLDWLPEAQPTDWSESKLPKLFGCHNTAAKATSSAIPLHASWDLYADDHQGSSNMASNSSPTSTMSFEPIFVSNVGDVESFWRLWRYLPAPSALPTVYTYSWFRKDIKPEWEHPRNKKGGTISIVVFDRDRSGLSDKQVLDDVFMAMLVGAVGESFHECSTTLNGIMLKVRSNKPVTLQLWTAHSEVGKLKAFANSVRDTLTKIMGAKTLQKLEYYSHHQKQAATNSLAARMKGKTKISPDHTF”, the “soluble on expression in E. coli” value is on record as “soluble”. For the sequence “MGSDKIHHHHHHMFRRHGIIAFSSNYELYADMSNRVMTTLEELSPRCEIYSIDEAFCDLTGVRNCRDLTDFGREIRETVLRRTHLTIGVGIAQTKTLAKLANHAAKQWQRQTGGVVDLSNLERQRKLMALLPVDEVWGVGRRISKKLEAMGIKTVLQLADTDIRFIRKHFNVVLERTVRELRGEPCLGLEEFAPVKQEIVCSRSFGGRITEYHEMRQAICSYASRAAEKLRGEHQYCRFISAFVKTSPFALNEPYYGNSASVKLLTPTQDSRDIITAATKCLDAIWRDGHRYQKAGVMLGDFYSQGVAQLNLFDDNAPRKGSEKLMEVLDHLNAKGGRGTLYFAGQGIQTAWQMKREMLSPRYTTRFCDLLKVR”, the “soluble on expression in E. coli” value was “not soluble”. As for “VFDRPLFALDFSKCTEKIIQTTELFKELVKEAILLHVVDYGKESEVEENIQKATQKLKEIAEKLDFPSEVVVHSGDASKEILMTAPSVGATLIVIGKRGRNILQLLMGSTAEIVIRNSVLPVLIVP”, the “soluble on expression in E. coli” value is reported as “not soluble”. The same measure for “MTAEHSWRLCLMALAFEDQLAGLDLGKVLRMCVVHDLGEAIHGDIPAVEQAAHPDKGEQERADLLQLTRHLDAPLRDRLLALWDEYERGESAEALAVKALDKLETL”: “soluble”; for “MTDVEIKAENGSGDASLEPENLRKIFVGGLTSNTTDDLMREFYSQFGEITDIIVMRDPTTKRSRGFGFVTFSGKTEVDAAMKQRPHIIDGKTVDPKRAVPRDDKNRSESNVSTKRLYVSGVREDHTEDMLTEYFTKYGTVTKSEIILDKATQKPRGFGFVTFDDHDSVDQCVLQKSHMVNGHRCDVRKGLSKDEMSKAQMNRDRETRGGRSRDGQRGGYNGGGGGGGGWGGPAQRGGPGAYGGPGGGGQGGYGGDYGGGWGQQGGGGQGGWGGPQQQQGGGGWGQQGGGGQGGWGGPQQQQQGGWGGPQQGGGGGGWGGQGQQQGGWGGQSGAQQWAHAQGGNRNY”: “not soluble”. The same measure for “MSFATISVIGLGYIGLPTAAAFASRQKQVIGVDINQHAVDTINRGEIHIVEPDLASVVKTAVEGGFLRASTTPVEADAWLIAVPTPFKGDHEPDMTYVESAARSIAPVLKKGALVILESTSPVGSTEKMAEWLAEMRPDLTFPQQVGEQADVNIAYCPERVLPGQVMVELIKNDRVIGGMTPVCSARASELYKIFLEGECVVTNSRTAEMCKLTENSFRDVNIAFANELSLICADQGINVWELIRLANRHPRVNILQPGPGVGGHCIAVDPWFIVAQNPQQARLIRTAREVNDHKPFWVIDQVKAAVADCLAATDKRASELKIACFGLAFKPNIDDLRESPAMEIAELIAQWHSGETLVVEPNIHQLPKKLTGLCTLAQLDEALATADVLVMLVDHSQFKVINGDNVHQQYVVDAKGVWR”: “not soluble”.

Take “MAACGNPSAAVKFERLPTFAEPTHYNVRLSPCLNQFSFDGHATIDVTIKEATDVLKVHAQSLLIQSVSLITQPGDASKSLETSYDDKLNILTIKLPTTMQPQKVQLDFKFVGELNDKMRGFYRSQYKDKNGTEKFLASTQFESTYARYAFPCFDEPIYKATFDVTLEVENHLTALSNMNVISETPTADGKRKAVTFATSPKMSSYLVAFAVGELEYISAQTKSGVEMRVYTVPGKKEQGQYSLDLSVKCIDWYNEWFDIKYPLPKCDLIAIPDFSMGAMENWGLVTYREIALLVDPGVTSTRQKSRVALVVAHELAHLWFGNLVTMKWWTDLWLKEGFASFMEYMFVGANCPEFKIWLHFLNDELASGMGLDALRNSHPIEVEIDNPNELDEIYDSITYAKSNSVNRMLCYYLSEPVFQKGLRLYLKRFQYSNAVTQDLWTALSEASGQNVNELMSGWTQQMGFPVLKVSQRQDGNNRILTVEQRRFISDGGEDPKNSQWQVPITVAVGSSPSDVKARFLLKEKQQEFTIEGVAPGEWVKLNSGTTGFYRVEYSDEMLTAMLPDIASRRMPVLDRFGLINDLSALLNTGRVSIAQFVQVAASSAKEDEYVVWGAIDEGMSKLLACAREMSEDTLKSAKQLVVKMFEQTGAELGFAEQAGEDSQKMMLRSLVQARLARAGHQPTIDKFTQMFNDFLEKGTPIHPDIRLATFGVVARYGGKEGFDKLMNLRETTTFQEIERQTMVAMSQTPEESLLAQLFEYGFEKNKVRPQDQLYLFLGTGATHMGQQYAWKYFCEHIKEFLDKYGGANSSLFQRCLKFAGESFGNEKRAVEFQDFFCNCNVLSDTDRQTLARPIGQTVEAIRLNARLLESNRQIIENLLKQSNV”: the “soluble on expression in E. coli” value is listed as “not soluble”. Consider “MKGRWAKYVATGVMLAMLAACSSKPTDRGQQYKDGKFTQPFSLVNQPDAVGAPINAGDFAEQVDQIRSASPRLYTNQSNVYNAVQNWLRSGGDTRTMRQFGIDAWQMEGTDNYGNVQFTGYYTPVVQARHTRQGAFQYPIYSMPPKRGRLPSRAQIYAGALSDKYILAWSNSLMDNFIMDVQGSGYIDFGDGSPLNFFSYAGKNGWPYRSIGKVLIDRGEVKKEDMSMQAIREWGEKHSEAEVRELLEQNPSFVFFKPQSFAPVKGASAVPLIGRASVASDRSIIPPGTTLLAEVPLLDNNGKFSGQYELRLMVALDVGGAIKGQHFDIYQGIGPDAGHRAGWYNHYGRVWVLKSAPGAGNVFSG”, for which the “soluble on expression in E. coli” value is “soluble”.

For the sequence “MAHHHHHHMGQAFMEDQGNSLVVWGSTGRRLQFSMQDLKMPASLRDTPHFHFYEKQWDAVASFWFNRVLKESALQHLSVEAIVELIRQDISKRWERRREEQSIYKKRKRLLQRSGPAGTPSASVLLTNVTTLDGYQAATEMEQRDLVTALVERVEDVANDKVESWQVLVDDASEQRPAKAARVEGTAATSGEHPENDADGASDFDDRVAVVLKLSSKEKAATTIAHLHGSRFDDRRVLCRFWSE”, the “soluble on expression in E. coli” value is “soluble”. For “MGSDKIHHHHHHMTLDPDAKLPETEEGTVVYNTDPLIIRSHYEIDYIHSYAQDSEFFRALGRKKLMGSKCKKCGYVYATPRSHCMMCGSETEWYELPLKGRVHTYTTCYFSGEEFLNETPFNLILVEFDGVNSLFMSRLIGAETKDIYIGMPVKAKFRRNLKMNVTDVYFVPDVEK”, the “soluble on expression in E. coli” value was “not soluble”. Regarding “MGSDKIHHHHHHMLAALKKYLLVPKLMRLSAGAPRDHHIAWDRFWSNVKTTGASGDVLWDSGSDHEMQGYVDRLRLHLDPGLPIVDIGCGNGSFTRQLAGHFPHAVGVDVSAHAVRRARAETAGLANISYAVADMTASGAGSGLLEELAVLDTGGQAGGGANVFIRGVLHVLGERDQHALAENARAITRANGRVFLAETNFRGNAVDYVTHLGATLRSIPAPLEGAIRGLPMPGRFGPKERSLAFPASRWELIEEGPTTIETMPLSNPARSDLIPGYFAVLEGRN”, the “soluble on expression in E. coli” value was “not soluble”. As for “MKNESIKIFQKKKQVILEKWITIQSQDQGLNNDLITNEDLRVQSEELLYTFIDNLTDNNIENPDSRDFENVLDILSSISISRAKQGYSPRETGFYVYSLKEALLSVLNEEIKDSSVLYTQSMAINKLLDSFTISTFETFIKGREDVIFRQTDEITQISTPVIRVWDGILALPIIGTLDSSRTQVVMESLLQEIVDTGSSIAILDISGVPAVDSLVAQHLIKTVSATRLMGAECIISGIRPEIAQTVVHLGIDLSTIITKATLASALKTAFVMLNLEVNKKQRNKTV”, the “soluble on expression in E. coli” value is recorded as “not soluble”. For the sequence “ALGVDKPREIAFEVLDRVRTGEAYANLVLPRLLSKHNLSGRDAAFATEITYGTLRNVGLLDEVIKAASGRELSDIDPEVLDVLRLGAYQVMFTRVEDHAAVDTSVKMVGGLKKFQATGFANAILRNITRKEPEQWLKELEPAEELARVAFRTAHPRWIA”, the “soluble on expression in E. coli” value is on record as “not soluble”. As for “SSESIRMVLIGPPGAGKGTQAPNLQERFHAAHLATGDMLRSQIAKGTQLGLEAKKIMDQGGLVSDDIMVNMIKDELTNNPACKNGFILVGFPRTIPQAEKLDQMLKEQGTPLEKAIELKVDDELLVARITGRLIHPASGRSYHKIFNPPKEDMKDDVTGEALVQISDDNADALKKRLAAYHAQTEPIVDFYKKTGIWAGVDASQPPATVWADILNKLGKN”, the “soluble on expression in E. coli” value is on record as “soluble”. Turning to “MAHHHHHHMRVYYSNLVKDKRKCLNFIKVEKKYGGTSLLTKIGQAFNQEHLRNMKTKLDDVKKSSSPFFGTSMEGSNNIFKNFIDIFRKNNIIKDKLKINDSEKKEKEFYMFYVNSLMKYEGIFTYGKFQAFLKDLCDYFNIFSIKYKYKKKMNPQFEKLKKQYEVLNSFLPYELDNDDYKIFTQESKKYIAQAANVDIKFIDELLLFHDTLKTDRTWFYRRKVLKRNIPESFEAREMEAPYDRPVPKTYNYNIKEHSLEYDEFMKKHGRKLKFKQWNSKQHPWFRKNTSGRNRWATRPYTKQFPYLYYSRVPSHMYLSKNKPKISH”, the “soluble on expression in E. coli” value is reported as “not soluble”. As for “MQSPPHDPASALAIRNHYRQSQSRAARLRLLVDTGQELIQLPPEAMRKCVLQRACAFVAMDHGLLLEWGADNGVQTTARHGSKERLSTLETTADPLAIGPQWLERPGTHLPCVLLLPLRGADEGSFGTLVLANSVAISAPDGEDIESLQLLATLLAAHLENNRLLEALVARDRT”, the “soluble on expression in E. coli” value was “not soluble”. “MIPVVYSNLCPVCGGDLESKEIEKHVCFRKKRSLCLFPEDFLLKEFVEFFRKCVGEPRAIQKMWAKRILRKESFAATAPTGVGKTSFGLAMSLFLALKGKRCYVIFPTSLLVIQAAETIRKYAEKAGVGTENLIGYYHGRIPKREKENFMQNLRNFKIVITTTQFLSKHYRELGHFDFIFVDDVDAILKASKNVDKLLHLLGFHYDLKTKSWVGEARGCLMVSTATAKKGKKAELFRQLLNFDIGSSRITVRNVEDVAVNDESISTLSSILEKLGTGGIIYARTGEEAEEIYESLKNKFRIGIVTATKKGDYEKFVEGEIDHLIGTAHYYGTLVRGLDLPERIRFAVFVGCPSFRVTIEDIDSLSPQMVKLLAYLYRNVDEIERLLPAVERHIDEVREILKKVMGKERPQAKDVVVREGEVIFPDLRTYIQGSGRTSRLFAGGLTKGASFLLEDDSELLSAFIERAKLYDIEFKSIDEVDFEKLSRELDESRDRYRRRQEFDLIKPALFIVESPTKARQISRFFGKPSVKVLDGAVVYEIPMQKYVLMVTASIGHVVDLITNRGFHGVLVNGRFVPVYASIKRCRDCGYQFTEDRESCPKCGSENVDNSRSRIEALRKLAHDAEFVIVGTDPDTEGEKIAWDLKNLLSGCGAVKRAEFHEVTRRAILEALESLRDVDENLVKAQVVRRIEDRWIGFVLSQKLWERFNNRNLSAGRAQTLVLGWIIDRFQESRERRKIAIVRDFDLVLEHDEEEFDLTIKLVEEREELRTPLPPYTTETMLSDANRILKFSVKQTMQIAQELFENGLITYHRTDSTRVSDVGQRIAKEYLGDDFVGREWGESGAHECIRPTRPLTRDDVQRLIQEGVLVVEGLRWEHFALYDLIFRRFMASQCRPFKVVVKKYSIEFDGKTAEEERIVRAEGRAYELYRAVWVKNELPTGTFRVKAEVKSVPKVLPFTQSEIIQMMKERGIGRPSTYATIVDRLFMRNYVVEKYGRMIPTKLGIDVFRFLVRRYAKFVSEDRTRDLESRMDAIERGELDYLKALEDMYAEIKSID”: the “soluble on expression in E. coli” value is listed as “soluble”.
